Measured values taken from paper PMC8164026, “Intrapulmonary administration of purified NEIL2 abrogates NF-κB–mediated inflammation”.

B1: C1-M (dsDNA)
DNA 1: GAAACACCCTGTACTCCGAAAAGGTCCCTGGCCCGGAGCTCTG
DNA 2: CAGAGCTCGGGGCCAGGGACCTTTTCGGAGTACAGGGTGTTTC
B2: C2-M (dsDNA)
DNA 1: GGACCCTGAGCTCAGAAAAGGTCCCTGGTCCACGGGCT
DNA 2: AGCCCGTGGACCAGGGACCTTTTCTGAGCTCAGGGTCC
B3: IL6-M (dsDNA)
DNA 1: TTGCTATTAAATGTGTTCGTTTGTACAGAGTCTCAAAA
DNA 2: TTTTGAGACTCTGTACAAACGAACACATTTAATAGCAA

Target: His-RelA (p65) (UniProt Q04206 1-551)
Sequence (Q04206 whole entry): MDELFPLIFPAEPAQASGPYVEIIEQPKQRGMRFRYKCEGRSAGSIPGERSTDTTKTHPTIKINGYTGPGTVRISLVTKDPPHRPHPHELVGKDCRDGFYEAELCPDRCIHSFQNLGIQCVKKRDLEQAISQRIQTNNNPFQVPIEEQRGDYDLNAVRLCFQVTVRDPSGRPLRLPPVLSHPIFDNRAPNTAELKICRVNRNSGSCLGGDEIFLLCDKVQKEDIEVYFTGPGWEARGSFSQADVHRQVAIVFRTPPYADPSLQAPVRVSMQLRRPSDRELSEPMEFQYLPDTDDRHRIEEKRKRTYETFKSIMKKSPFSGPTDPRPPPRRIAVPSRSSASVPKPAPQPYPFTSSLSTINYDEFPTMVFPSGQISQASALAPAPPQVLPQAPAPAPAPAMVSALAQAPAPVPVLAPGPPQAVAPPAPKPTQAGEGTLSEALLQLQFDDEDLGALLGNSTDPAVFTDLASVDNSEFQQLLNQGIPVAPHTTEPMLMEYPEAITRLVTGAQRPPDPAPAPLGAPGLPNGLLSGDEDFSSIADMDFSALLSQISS
Test: EMSA; EMSA: 10 mM Tris-HCl pH 7.9, 50 mM NaCl, 1 mM MgCl2, 1 mM EDTA, 5 mM DTT, 5% glycerol, 0.5 µg poly dI.dC, 2-10 µg acetylated BSA, 10 min, room temperature; gel
Conditions: protein: recombinant, tags: His, chain copies: 2

Binder	binding result (blunt as printed, one internal mismatch outside the motif (printed))	binding result (blunt)
B1	no binding	
B2		no binding
B3		no binding
